Results as given in patent US20050260197A1 (IMMUNEX, published 2005).

What was measured:
[1] = target: T1, recombinant human leukemia inhibitory factor (125I-labeled) (human, UniProt P15018 23-202, radioiodinated (125I)); assay: 125I-LIF binding to Fc fusion captured on Protein A beads
T1 construct: also called LIF; 125I-LIF
Experimental: (§1) The transfected cells were cultured to allow expression and secretion of the fusion proteins into the culture medium. Cross-linked agarose beads bearing Protein A (Protein A Sepharose CL-4B, Pharmacia Biotech, Inc., Piscataway, N.J.) were added to the culture supernatants, whereupon the fusion proteins bound to the beads via the interaction of the Fc moiety with the Protein A. Radioiodinated oncostatin M or radioiodinated LIF was also added to the culture supernatants. Preparation of ¹²⁵I-oncostatin M is described in example 2 above. Among the known procedures for purifying and radioiodinating LIF are those described in example 1 of U.S. Pat. No. 5,284,755. The ¹²⁵I-LIF employed in this assay was recombinant human LIF labeled with 125I using the enzymobead reagent (BioRad).
(§2) The culture supernatants were incubated with the Protein A beads and ¹²⁵I-LIF or ¹²⁵I-oncostatin M for 18 hours at 4° C. Free and cell-bound ¹²⁵I-LIF or ¹²⁵i-oncostatin M were separated by low speed centrifugation through a single step density gradient of 3% glucose in PBS. The bead-bound radioiodinated proteins were quantified on a Packard Autogamma counter.

[2] = target: T1, recombinant human leukemia inhibitory …; assay: 125I-LIF binding to Fc fusions captured on Protein A beads
Experimental: as §1, §2

[3] = target: T2, oncostatin M (125I-labeled) (UniProt P13725 26-221, limits assumed, radioiodinated (125I)); assay: 125I-oncostatin M binding to Fc fusion captured on Protein A beads
T2 construct: also called OSM; 125I-OSM
T2 sequence (looked up): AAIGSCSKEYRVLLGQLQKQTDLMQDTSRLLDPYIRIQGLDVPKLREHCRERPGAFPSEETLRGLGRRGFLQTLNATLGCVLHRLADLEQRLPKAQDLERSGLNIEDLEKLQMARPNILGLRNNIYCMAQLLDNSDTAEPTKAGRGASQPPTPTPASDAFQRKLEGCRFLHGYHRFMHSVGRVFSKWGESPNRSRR
Experimental: as §1, §2

T1 sequence (P15018 23-202 limits assumed): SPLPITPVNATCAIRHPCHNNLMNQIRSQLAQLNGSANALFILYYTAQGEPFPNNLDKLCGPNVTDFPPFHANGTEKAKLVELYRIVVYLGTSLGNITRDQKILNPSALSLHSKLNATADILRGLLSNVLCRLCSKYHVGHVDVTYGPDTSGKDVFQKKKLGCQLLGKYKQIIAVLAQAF

B1: soluble human gp130/Fc fusion protein (Fc fusion)
chain: ELLDPCGYISPESPVVQLHSNFTAVCVLKEKCMDYFHVNANYIVWKTNHFTIPKEQYTIINRTASSVTFTDIASLNIQLTCNILTFGQLEQNVYGITIISGLPPEKPKNLSCIVNEGKKMRCEWDGGRETHLETNFTLKSEWATHKFADCKAKRDTPTSCTVDYSTVYFVNIEVWVEAENALGKVTSDHINFDPVYKVKPNPPHNLSVINSEELSSILKLTWTNPSIKSVIILKYNIQYRTKDASTWSQIPPEDTASTRSSFTVQDLKPFTEYVFRIRCMKEDGKGYWSDWSEEASGITYEDRPSKAPSFWYKIDPSHTQGYRTVQLVWKTLPPFEANGKILDYEVTLTRWKSHLQNYTVNATKLTVNLTNDRYLATLTVRNLVGKSDAAVLTIPACDFQATHPVMDLKAFPKDNMLWVEWTTPRESVKKYILEWCVLSDKAPCITDWQQEDGTVHRTYLRGNLAESKCYLITVTPVYADGPGSPESIKAYLKQAPPSKGPTVRTKKVGKNEAVLEWDQLPVDVQNGFIRNYTIFYRTIIGNETAVNVDSSHTEYTLSSLTSDTLYMVRMAAYTDEGGKDGPEPRSCDKTHTCPPCPAPELLGGPSVFLFPPKPKDTLMISRTPEVTCVVVDVSHEDPEVKFNWYVDGVEVHNAKTKPREEQYNSTYRVVSVLTVLHQDWLNGKDYKCKVSNKALPAPMQKTISKAKGQPREPQVYTLPPSRDELTKNQVSLTCLVKGFYPRHIAVEWESNGQPENNYKTTPPVLDSDGSFFLYSKLTVDKSRWQQGNVFSCSVMHEALHNHYTQKSLSLSPGK
notes: Tested from culture supernatant, captured on Protein A beads; also called soluble gp130/Fc; experiment B; not shown: 7 amino acid peptide linker encoded by the polylinker of plasmid hIgG1Fc
binding result [1]: no binding

B2: proteins expressed by cells co-transfected with vectors encoding soluble OSM-Rβ/Fc and soluble gp130/Fc (Fc fusion)
chain 1: ERLPLTPVSLKVSTNSTRQSLHLQWTVHNLPYHQELKMVFQIQISRIETSNVIWVGNYSTTVKWNQVLHWSWESELPLECATHFVRIKSLVDDAKFPEPNFWSNWSSWEEVSVQDSTGQDILFVFPKDKLVEEGTNVTICYVSRNIQNNVSCYLEGKQIHGEQLDPHVTAFNLNSVPFIRNKGTNIYCEASQGNVSEGMKGIVLFVSKVLEEPKDFSCETEDFKTLHCTWDPGTDTALGWSKQPSQSYTLFESFSGEKKLCTHKNWCNWQITQDSQETYNFTLIAENYLRKRSVNILFNLTHRVYLMNPFSVNFENVNATNAIMTWKVHSIRNNFTYLCQIELHGEGKMMQYNVSIKVNGEYFLSELEPATEYMARVRCADASHFWKWSEWSGQNFTTLEAAPSEAPDVWRIVSLEPGNHTVTLFWKPLSKLVEPRSCDKTHTCPPCPAPELLGGPSVFLFPPKPKDTLMISRTPEVTCVVVDVSHEDPEVKFNWYVDGVEVHNAKTKPREEQYNSTYRVVSVLTVLHQDWLNGKDYKCKVSNKALPAPMQKTISKAKGQPREPQVYTLPPSRDELTKNQVSLTCLVKGFYPRHIAVEWESNGQPENNYKTTPPVLDSDGSFFLYSKLTVDKSRWQQGNVFSCSVMHEALHNHYTQKSLSLSPGK
chain 2: ELLDPCGYISPESPVVQLHSNFTAVCVLKEKCMDYFHVNANYIVWKTNHFTIPKEQYTIINRTASSVTFTDIASLNIQLTCNILTFGQLEQNVYGITIISGLPPEKPKNLSCIVNEGKKMRCEWDGGRETHLETNFTLKSEWATHKFADCKAKRDTPTSCTVDYSTVYFVNIEVWVEAENALGKVTSDHINFDPVYKVKPNPPHNLSVINSEELSSILKLTWTNPSIKSVIILKYNIQYRTKDASTWSQIPPEDTASTRSSFTVQDLKPFTEYVFRIRCMKEDGKGYWSDWSEEASGITYEDRPSKAPSFWYKIDPSHTQGYRTVQLVWKTLPPFEANGKILDYEVTLTRWKSHLQNYTVNATKLTVNLTNDRYLATLTVRNLVGKSDAAVLTIPACDFQATHPVMDLKAFPKDNMLWVEWTTPRESVKKYILEWCVLSDKAPCITDWQQEDGTVHRTYLRGNLAESKCYLITVTPVYADGPGSPESIKAYLKQAPPSKGPTVRTKKVGKNEAVLEWDQLPVDVQNGFIRNYTIFYRTIIGNETAVNVDSSHTEYTLSSLTSDTLYMVRMAAYTDEGGKDGPEPRSCDKTHTCPPCPAPELLGGPSVFLFPPKPKDTLMISRTPEVTCVVVDVSHEDPEVKFNWYVDGVEVHNAKTKPREEQYNSTYRVVSVLTVLHQDWLNGKDYKCKVSNKALPAPMQKTISKAKGQPREPQVYTLPPSRDELTKNQVSLTCLVKGFYPRHIAVEWESNGQPENNYKTTPPVLDSDGSFFLYSKLTVDKSRWQQGNVFSCSVMHEALHNHYTQKSLSLSPGK
notes: also called OSM-Rβ/Fc and gp130/Fc; experiment F; not shown: 7 amino acid peptide linker encoded by the polylinker of plasmid hIgG1Fc
binding result [2]: no binding

B3: soluble OSM-Rβ/Fc fusion protein (Fc fusion)
chain: ERLPLTPVSLKVSTNSTRQSLHLQWTVHNLPYHQELKMVFQIQISRIETSNVIWVGNYSTTVKWNQVLHWSWESELPLECATHFVRIKSLVDDAKFPEPNFWSNWSSWEEVSVQDSTGQDILFVFPKDKLVEEGTNVTICYVSRNIQNNVSCYLEGKQIHGEQLDPHVTAFNLNSVPFIRNKGTNIYCEASQGNVSEGMKGIVLFVSKVLEEPKDFSCETEDFKTLHCTWDPGTDTALGWSKQPSQSYTLFESFSGEKKLCTHKNWCNWQITQDSQETYNFTLIAENYLRKRSVNILFNLTHRVYLMNPFSVNFENVNATNAIMTWKVHSIRNNFTYLCQIELHGEGKMMQYNVSIKVNGEYFLSELEPATEYMARVRCADASHFWKWSEWSGQNFTTLEAAPSEAPDVWRIVSLEPGNHTVTLFWKPLSKLVEPRSCDKTHTCPPCPAPELLGGPSVFLFPPKPKDTLMISRTPEVTCVVVDVSHEDPEVKFNWYVDGVEVHNAKTKPREEQYNSTYRVVSVLTVLHQDWLNGKDYKCKVSNKALPAPMQKTISKAKGQPREPQVYTLPPSRDELTKNQVSLTCLVKGFYPRHIAVEWESNGQPENNYKTTPPVLDSDGSFFLYSKLTVDKSRWQQGNVFSCSVMHEALHNHYTQKSLSLSPGK
notes: Truncated extracellular domain of OSM-Rβ; Tested from culture supernatant, captured on Protein A beads; also called experiment D
binding result [1]: no binding
binding result [3]: no binding
